In test [1] the target is tapasin (human), wild type, in HeLa cells (UniProt O15533). Briefly: co-immunoprecipitation with immunoblot densitometry. As to conditions: transient transfection of HeLa cells; IP via C-terminal c-Myc tag of TMD0TAP1; three independent experiments.
Test [2] addresses TMD0^TAP1 L70C single-cysteine mutant (M553) (human). Briefly: cross-linking; crude membranes of M553 cells (tapasin-negative) transfected with single-Cys TMD0^TAP1 without tapasin; 1 mM Cu2+(phenanthroline)3, 10 min, 37 °C; non-reducing SDS-PAGE and immunoblot.
The target in test [3] is TMD0^TAP1 V34C single-cysteine mutant (M553) (human). The description is as above.
Test [4] concerns the target TMD0^TAP1 L107C single-cysteine mutant (M553) (human). Described as above.
Test [5] has as its target TMD0^TAP1 L68C single-cysteine mutant (M553) (human). Described as above.
Test [6] has as its target TMD0^TAP1 W69C single-cysteine mutant (M553) (human). The description is as above.
For test [7], the target named is TMD0^TAP1 W33C single-cysteine mutant (M553) (human). Described as above.
For test [8], the target named is TMD0^TAP1 V67C single-cysteine mutant (M553) (human). The description is as above.

The term stoichiometry N denotes the number of molecules, sites or subunits per partner or assembly.

Chain of UniProt O15533 (O15533 21-448): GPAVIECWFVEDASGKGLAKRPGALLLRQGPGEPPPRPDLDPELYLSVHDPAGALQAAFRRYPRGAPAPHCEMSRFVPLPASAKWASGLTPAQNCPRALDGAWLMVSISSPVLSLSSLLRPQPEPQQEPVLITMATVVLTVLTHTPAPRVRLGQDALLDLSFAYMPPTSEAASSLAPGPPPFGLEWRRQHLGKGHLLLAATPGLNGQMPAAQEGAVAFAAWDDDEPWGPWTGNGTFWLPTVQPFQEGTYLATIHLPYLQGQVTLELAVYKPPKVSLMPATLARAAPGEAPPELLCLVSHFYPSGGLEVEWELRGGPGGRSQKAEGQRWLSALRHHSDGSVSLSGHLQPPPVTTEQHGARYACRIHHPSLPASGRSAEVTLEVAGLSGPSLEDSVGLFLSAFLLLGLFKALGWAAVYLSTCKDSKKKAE

In test [1], “TMD0^TAP1, parent of the single-cysteine mutants (Cys-less TAP background) V67C” gave a response of 19%.

For the substance “TMD0^TAP1 L70C single-cysteine mutant (M553) (domain or fragment)”, the stoichiometry N in test [2] turned out to be 2.

In the case of “TMD0^TAP1, parent of the single-cysteine mutants (Cys-less TAP background) V34C”, in test [1], the response was 17%.

“TMD0^TAP1, parent of the single-cysteine mutants (Cys-less TAP background) L68C”: the response in test [1] is 51%.

In the case of “TMD0^TAP1, parent of the single-cysteine mutants (Cys-less TAP background) L105C”, the response in test [1] is 26%.

Take “TMD0^TAP1 V34C single-cysteine mutant (M553) (domain or fragment)”: in test [3], the stoichiometry N came to 2.

With “TMD0^TAP1, parent of the single-cysteine mutants (Cys-less TAP background) L70C”, the response in test [1] is 27%.

“TMD0^TAP1, parent of the single-cysteine mutants (Cys-less TAP background) D32C” displayed a response in test [1] of 0%.

For “TMD0^TAP1, parent of the single-cysteine mutants (Cys-less TAP background) W69C”, the response in test [1] was determined as 81%.

In the case of “TMD0^TAP1, parent of the single-cysteine mutants (Cys-less TAP background) A106C”, the response in test [1] amounted to 42%.

In test [1], “TMD0^TAP1, parent of the single-cysteine mutants (Cys-less TAP background) W33C” came in with a response of 9%.

For “TMD0^TAP1, parent of the single-cysteine mutants (Cys-less TAP background) P108C”, in test [1], the response came out at 29%.

Consider “TMD0^TAP1, parent of the single-cysteine mutants (Cys-less TAP background) A151C”, for which the response in test [1] is 47%.

Regarding “TMD0^TAP1, parent of the single-cysteine mutants (Cys-less TAP background) L148C”, in test [1], the response is 12%.

As for “TMD0^TAP1 L107C single-cysteine mutant (M553) (domain or fragment)”, the stoichiometry N in test [4] was determined as 2.

Regarding “TMD0^TAP1, parent of the single-cysteine mutants (Cys-less TAP background) L107C”, in test [1], the response worked out at 46%.

Regarding “TMD0^TAP1, parent of the single-cysteine mutants (Cys-less TAP background) A150C”, the response in test [1] was found to be 25%.

In test [5], “TMD0^TAP1 L68C single-cysteine mutant (M553) (domain or fragment)” registered a stoichiometry N of 2.

Consider “TMD0^TAP1, parent of the single-cysteine mutants (Cys-less TAP background) P149C”, for which, in test [1], the response was 86%.

As to “TMD0^TAP1 W69C single-cysteine mutant (M553) (domain or fragment)”, the stoichiometry N in test [6] stood at 2.

Take “TMD0^TAP1, parent of the single-cysteine mutants (Cys-less TAP background) A31C”: the response in test [1] came out at 22%.

On to “TMD0^TAP1 W33C single-cysteine mutant (M553) (domain or fragment)”, for which the stoichiometry N in test [7] is 2.

“TMD0^TAP1 V67C single-cysteine mutant (M553) (domain or fragment)”: in test [8], the stoichiometry N was found to be 2.

For the origin of these results see article PMC4661472.
